The results in this text go back to patent publication US20200362024A1, “BIOLOGICAL MATERIALS AND USES THEREOF” (IMPERIAL INNOVATIONS LIMITED, priority 2009, published 2020).

Series [1] concerns tenascin-C. Put plainly: siRNA mediated knockdown of tenascin-C expression in RA synovial fibroblasts. In kind it is cell-based, human. The following applies: 10 nM siRNA, compared to luciferase siRNA control. As to the method: (§1) Synovial fibroblasts (used only at either passage number 2 or 3) were seeded at a concentration of 5×10^4 cells in a 3.5-cm dish. siRNA was transfected at a final concentration of 10 nM using Lipofectamine 2000 (Invitrogen) for 4 h in serum-free OptiMEM I. Two different siRNAs against human tenascin-C were used (s7069 and s229491) (Applied Biosystems).
siRNA sequences of s7069 are: (sense 5′ […]tt 3′, antisense 5′ […]tc 3′) and of s229491 are (5′ […]tt 3′, antisense 5′ […]gg 3′). siRNA against luciferase (Dharmacon) was transfected as a non-targeting control.
Four hours after transfection, medium was changed with pre-equilibrated Dulbecco's modified Eagle's medium containing 10% FBS (v/v) and cells were incubated for a further 48 h and 72 h. Cells were then stimulated with 10 ng/ml LPS for 24 h at 37° C. Tenascin-C mRNA and protein levels were quantitated by PCR and western blotting respectively. […]
Gene expression was analysed by delta-delta ct methods based on quantitative real-time PCR with TaqMan primer set human tenascin-C(Hs01115663-ml) and human ribosomal protein endogenous control (RPLPO) (4310879E) (Applied Biosystems) in a Corbett Rotor-gene 6000 machine (Corbett Research Ltd). Tenascin-C protein was detected in cell supernatants and cell lysates by SDS PAGE and western blotting using antibody MAB1908 (Millipore).

In series [2] the test system is RA synovial fibroblasts. Put plainly: Cytokine synthesis in RA synovial fibroblasts transfected with tenascin-C siRNA. The conditions noted are these: compared to control cells (IL6). In kind it is cell-based, human. On the procedure:
as §1
Four hours after transfection, medium was changed with pre-equilibrated Dulbecco's modified Eagle's medium containing 10% FBS (v/v) and cells were incubated for a further 48 h and 72 h. Cells were then stimulated with 10 ng/ml LPS for 24 h at 37° C. Tenascin-C mRNA and protein levels were quantitated by PCR and western blotting respectively. Total RNA was extracted from cells using a QiaAmp RNA Blood mini kit (Qiagen, Germany). cDNA was synthesised from equivalent amounts of total RNA using SuperScript® III Reverse Transcriptase (invitrogen) and 18-mer oligo dTs (Eurofins MWG Operon).
Supernatants were examined for the presence of the cytokines TNF-α, IL-6, and IL-8 by enzyme-linked immunosorbent assay (ELISA) according to the manufacturer's instructions (R&D systems). Absorbance was read on a spectrophotometric ELISA plate reader (Labsystems Multiscan Biochromic, Vantaa, Finland) and analyzed using the Ascent software program (Thermo Labsystems, Altrincham, UK).

B1: tenascin-C siRNA: tenascin-C targeted siRNAs; combination of oligos 1+2 used for cytokine synthesis (nucleic acid)
sense 1: CGCGAGAACUUCUACCAAATT
antisense 1: UUUGGUAGAAGUUCUCGCGTC
sense 2: GGAAUAUGAAUAAAGAAGATT
antisense 2: UCUUCUUUAUUCAUAUUCCGG
modifications: chemistry not given here
notes: tenascin-C targeted siRNAs; combination of oligos 1+2 used for cytokine synthesis
Regarding B1, the “knockdown of tenascin-C expression, maximal efficiency” value in series [1] was 94-96%. Besides, the “inhibition of LPS induced cytokine production” value in series [2] (10 ng/ml LPS 24 h) amounted to 44%. In addition, the “inhibition of basal level of cytokine synthesis” value in series [2] turned out to be 38%.
